This passage reports ISRE Signaling of Transfected 293 Cells (Fold Induction), ISRE-Luc./IL-28R, ligand 100 ng/ml (fold induction), Percent Inhibition of Ligand-induced ISRE Signaling by Soluble Receptors (10 ng/ml ligand, 10 micrograms/ml soluble receptor) and ISRE Signaling of Transfected 293 Cells (Fold Induction), ISRE-Luc./IL-28R, ligand 125 ng/ml (fold induction) results from patent US20070020227A1.

Common to all, as to test: cell-based or functional assay
Experiment [1] addresses human IL-28 receptor on 293 HEK cells (transfected IL-28 receptor alpha subunit with endogenous CRF2-4) (human).
Experiment [2] concerns the target T1, zcyto20 (human IL-28A) (human) (UniProt Q8IZJ0).
T1 sequence: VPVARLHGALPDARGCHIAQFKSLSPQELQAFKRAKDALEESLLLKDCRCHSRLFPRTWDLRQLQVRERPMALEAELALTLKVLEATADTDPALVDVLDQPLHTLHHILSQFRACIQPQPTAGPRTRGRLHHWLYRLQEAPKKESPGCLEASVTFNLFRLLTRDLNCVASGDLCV

The target in experiment [3] is T2, zcyto24 (mouse IL-28, SEQ ID NO: 8) (mouse) (UniProt Q4VK74).
T2 sequence: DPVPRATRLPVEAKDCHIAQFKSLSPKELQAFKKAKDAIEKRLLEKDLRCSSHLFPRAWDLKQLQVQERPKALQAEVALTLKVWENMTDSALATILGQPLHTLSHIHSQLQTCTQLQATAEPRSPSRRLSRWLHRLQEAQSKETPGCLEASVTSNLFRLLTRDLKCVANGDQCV

In experiment [4] the target is zcyto21 (SEQ ID NO:15) (human) (UniProt Q8IU54).
UniProt Q8IU54, sequence (Q8IU54 other isoform, or with tags, fused parts or gaps): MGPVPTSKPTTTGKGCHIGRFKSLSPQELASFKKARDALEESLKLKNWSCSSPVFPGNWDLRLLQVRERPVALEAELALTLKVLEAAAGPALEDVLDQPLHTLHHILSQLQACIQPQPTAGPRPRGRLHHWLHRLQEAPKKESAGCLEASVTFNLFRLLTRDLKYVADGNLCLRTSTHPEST

human IL-28 receptor on 293 HEK cells (transfected IL-28 receptor alpha subunit with endogenous CRF2-4) (human), sequence (Q8IU57 whole entry, chain 1 of 2): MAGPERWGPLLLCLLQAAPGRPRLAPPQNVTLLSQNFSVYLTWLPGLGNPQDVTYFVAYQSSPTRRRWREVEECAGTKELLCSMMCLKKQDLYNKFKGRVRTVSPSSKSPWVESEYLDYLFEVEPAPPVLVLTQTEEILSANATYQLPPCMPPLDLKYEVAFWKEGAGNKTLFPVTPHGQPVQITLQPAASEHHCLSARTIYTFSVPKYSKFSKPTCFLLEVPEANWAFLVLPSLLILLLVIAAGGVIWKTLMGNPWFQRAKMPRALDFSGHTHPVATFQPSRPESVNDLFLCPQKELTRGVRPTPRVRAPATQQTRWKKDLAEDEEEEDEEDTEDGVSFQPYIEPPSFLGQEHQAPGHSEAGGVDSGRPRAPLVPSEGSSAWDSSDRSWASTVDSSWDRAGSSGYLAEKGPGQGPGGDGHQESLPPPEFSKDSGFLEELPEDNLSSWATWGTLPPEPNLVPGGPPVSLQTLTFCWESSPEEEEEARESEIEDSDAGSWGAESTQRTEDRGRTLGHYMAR
human IL-28 receptor on 293 HEK cells (transfected IL-28 receptor alpha subunit with endogenous CRF2-4) (human), sequence (Q08334 whole entry, chain 2 of 2, further chain): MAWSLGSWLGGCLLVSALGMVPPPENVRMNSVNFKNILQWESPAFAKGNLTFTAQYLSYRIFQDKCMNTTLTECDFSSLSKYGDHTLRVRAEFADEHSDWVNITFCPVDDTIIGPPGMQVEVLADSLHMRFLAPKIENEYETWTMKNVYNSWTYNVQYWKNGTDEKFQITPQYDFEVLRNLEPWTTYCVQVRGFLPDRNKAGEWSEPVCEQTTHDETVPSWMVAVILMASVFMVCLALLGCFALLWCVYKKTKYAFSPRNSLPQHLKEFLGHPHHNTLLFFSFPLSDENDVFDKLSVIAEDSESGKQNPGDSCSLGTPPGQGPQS

As to “huIL10 (from UniProt P22301 19-178) (ligand)”, in experiment [1], the ISRE Signaling of Transfected 293 Cells (Fold Induction), ISRE-Luc./IL-28R, ligand 100 ng/ml (fold induction) came to 0.5.

Regarding “human CRF2-4-Fc homodimer soluble receptor (Fc fusion)”, the values for the Percent Inhibition of Ligand-induced ISRE Signaling by Soluble Receptors (10 ng/ml ligand, 10 micrograms/ml soluble receptor) in experiment [2], in experiment [3] and in experiment [4] were 80%, 82% and 79%, respectively.

Regarding “human zcytor19-Fc/human CRF2-4-Fc heterodimer soluble receptor (Fc fusion)”, the Percent Inhibition of Ligand-induced ISRE Signaling by Soluble Receptors (10 ng/ml ligand, 10 micrograms/ml soluble receptor) turned out to be 16% in experiment [2], 47% in experiment [3] and 16% in experiment [4].

On to zcyto10 (ligand), for which, in experiment [1], the ISRE Signaling of Transfected 293 Cells (Fold Induction), ISRE-Luc./IL-28R, ligand 125 ng/ml (fold induction) turned out to be 1.

B1: murine zcytor19-Ig homodimer soluble receptor (Fc fusion, part only; not given: Ig portion, UniProt Q8CGK5 21-227, looked up, part only)
chain, part: RPRLAPPRNVTLFSQNFTVYLTWLPGLGSPPNVTYFVTYQSYIKTGWRPVEHCAGIKALVCPLMCLKKLNLYSKFKGRVQAASAHGRSPRVESRYLEYLFDVELAPPTLVLTQMEKILRVNATYQLPPCMPSLELKYQVEFWKEGLGSKTLFPDTPYGQPVQIPLQQGASRRHCLSARTVYTLIDIKYSQFSEPSCIFLEAPGDKRA
As to B1, the values for the Percent Inhibition of Ligand-induced ISRE Signaling by Soluble Receptors (10 ng/ml ligand, 10 micrograms/ml soluble receptor) in experiment [2], in experiment [3] and in experiment [4] were 91%, 89% and 103%, respectively.

B2: human zcytor19-Fc homodimer soluble receptor (Fc fusion, not shown: a dimerising Fc or GST)
chain: RPRLAPPQNVTLLSQNFSVYLTWLPGLGNPQDVTYFVAYQSSPTRRRWREVEECAGTKELLCSMMCLKKQDLYNKFKGRVRTVSPSSKSPWVESEYLDYLFEVEPAPPVLVLTQTEEILSANATYQLPPCMPPLDLKYEVAFWKEGAGNKTLFPVTPHGQPVQITLQPAASEHHCLSARTIYTFSVPKYSKFSKPTCFLLEVPEANWA
As for B2, the figures for the Percent Inhibition of Ligand-induced ISRE Signaling by Soluble Receptors (10 ng/ml ligand, 10 micrograms/ml soluble receptor) in experiment [2], in experiment [3] and in experiment [4] were 92%, 90% and 45%, respectively.

B3: IL-28B (SEQ ID NO: 6) (ligand)
chain: VPVARLRGALPDARGCHIAQFKSLSPQELQAFKRAKDALEESLLLKDCKCRSRLFPRTWDLRQLQVRERPVALEAELALTLKVLEATADTDPALGDVLDQPLHTLHHILSQLRACIQPQPTAGPRTRGRLHHWLHRLQEAPKKESPGCLEASVTFNLFRLLTRDLNCVASGDLCV
With B3, the ISRE Signaling of Transfected 293 Cells (Fold Induction), ISRE-Luc./IL-28R, ligand 125 ng/ml (fold induction) in experiment [1] was found to be 104.
